Biological target: HLA-A*02:01 (Homo sapiens, UniProt P04439, D140Y/D185E/D98H/E176V/E277Q/G131W/G231S/I119V/I121R/I166T/I218V/L300P/L318F/N151K/N90K/P208A/P217A/Q86G/Q94H/R138H/R169H/T345S)
Assay: MHC binding assay: UV-ligand exchange with beta2m ELISA (exchange yield)
Conditions: binding to HLA-A*02:01, β2m ELISA
In short: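 Exchange yield reflects how much β2m remains bound, measured by ELISA: streptavidin capture of 100-fold diluted monomers, HRP anti-β2m at 37° C. for 1 h, TMB read at 450 nm. Monomers come from UV cleavage of a conditional HLA-A*02:01 ligand in the presence of the candidate peptide.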

Peptide exchange (MHC class I binding score, peptide exchange yield) | Substance
“++” (≥20% = ++) | 408 (VLDDSIYLV; listed as Homo sapiens) [compound 408]
“++” (≥20% = ++) | 434 (KVSNSGITRV; listed as Homo sapiens) [compound 434]
“+++” (≥50 = +++) | 437 (SMAPGLVIQAV; listed as Homo sapiens) [compound 437]
“++++” (≥75% = ++++) | 438 (KLLPLAGLYL; listed as Homo sapiens) [compound 438]
“++” (≥20% = ++) | 440 (ALADGVTMQV; listed as Homo sapiens) [compound 440]
“+++” (≥50 = +++) | 444 (GLLRDEALAEV; listed as Homo sapiens) [compound 444]
“+++” (≥50 = +++) | 446 (QLIPALAKV; listed as Homo sapiens) [compound 446]
“+++” (≥50 = +++) | 448 (NLLETKLQL; listed as Homo sapiens) [compound 448]
“+++” (≥50 = +++) | 450 (FMIDASVHPTL; listed as Homo sapiens) [compound 450]
“+++” (≥50 = +++) | 452 (ILLEHGADPNL; listed as Homo sapiens) [compound 452]
“++” (≥20% = ++) | 453 (KLLEATSAV; listed as Homo sapiens) [compound 453]
“+++” (≥50 = +++) | 457 (SLLPGNLVEKV; listed as Homo sapiens) [compound 457]
“++” (≥20% = ++) | 459 (ALITEVVRL; listed as Homo sapiens) [compound 459]
“++” (≥20% = ++) | 461 (VMFRTPLASV; listed as Homo sapiens) [compound 461]
“+++” (≥50 = +++) | 463 (SLVESHLSDQLTL; listed as Homo sapiens) [compound 463]
“+++” (≥50 = +++) | 467 (FLAKDFNFL; listed as Homo sapiens) [compound 467]
“+++” (≥50 = +++) | 469 (YLASDEITTV; listed as Homo sapiens) [compound 469]
“+++” (≥50 = +++) | 471 (YLYNNMIAKI; listed as Homo sapiens) [compound 471]
“+++” (≥50 = +++) | 477 (ALLPASGQIAL; listed as Homo sapiens) [compound 477]
“+++” (≥50 = +++) | 478 (YLLHEKLNL; listed as Homo sapiens) [compound 478]
“+++” (≥50 = +++) | 480 (ALLEDSCHYL; listed as Homo sapiens) [compound 480]
“+++” (≥50 = +++) | 481 (GLIEDYEALL; listed as Homo sapiens) [compound 481]
“+++” (≥50 = +++) | 488 (FLAEDPKVTL; listed as Homo sapiens) [compound 488]
“+++” (≥50 = +++) | 490 (FLLQHVQEL; listed as Homo sapiens) [compound 490]
“+++” (≥50 = +++) | 493 (GLLGEKTQDLIGV; listed as Homo sapiens) [compound 493]
“++” (≥20% = ++) | 494 (ALQPEPIKV; listed as Homo sapiens) [compound 494]

More lines, now with the values behind:

Substance | Peptide exchange (MHC class I binding score, peptide exchange yield)
405 (ALYDVFLEV; listed as Homo sapiens) [compound 405] | “++” (≥20% = ++)
407 (YLMDLINFL; listed as Homo sapiens) [compound 407] | “+++” (≥50 = +++)
409 (LLDAMNYHL; listed as Homo sapiens) [compound 409] | “++” (≥20% = ++)
412 (YLDDLNEGVYI; listed as Homo sapiens) [compound 412] | “++” (≥20% = ++)
426 (RLADKSVLV; listed as Homo sapiens) [compound 426] | “+++” (≥50 = +++)
427 (ALLPLSPYL; listed as Homo sapiens) [compound 427] | “+++” (≥50 = +++)
428 (KLGHTDILVGV; listed as Homo sapiens) [compound 428] | “++” (≥20% = ++)
429 (GLVNDLARV; listed as Homo sapiens) [compound 429] | “++” (≥20% = ++)
430 (HLYSSIEHLTT; listed as Homo sapiens) [compound 430] | “+++” (≥50 = +++)
431 (SLVNVVPKL; listed as Homo sapiens) [compound 431] | “++” (≥20% = ++)
432 (TLIEESAKV; listed as Homo sapiens) [compound 432] | “++” (≥20% = ++)
433 (AMLNEPWAV; listed as Homo sapiens) [compound 433] | “+++” (≥50 = +++)
436 (HLAEVSAEV; listed as Homo sapiens) [compound 436] | “+++” (≥50 = +++)
439 (YLLQEIYGI; listed as Homo sapiens) [compound 439] | “+++” (≥50 = +++)
441 (ALLENPKMEL; listed as Homo sapiens) [compound 441] | “+++” (≥50 = +++)
442 (GLLGGGGVLGV; listed as Homo sapiens) [compound 442] | “+++” (≥50 = +++)
447 (QLVPALAKV; listed as Homo sapiens) [compound 447] | “++” (≥20% = ++)
449 (KLAEGLDIQL; listed as Homo sapiens) [compound 449] | “+++” (≥50 = +++)
451 (LLLLDTVTMQV; listed as Homo sapiens) [compound 451] | “++” (≥20% = ++)
454 (KLPPPPPQA; listed as Homo sapiens) [compound 454] | “+++” (≥50 = +++)

Substance | Peptide exchange (MHC class I binding score, peptide exchange yield)
455 (SLLKEPQKVQL; listed as Homo sapiens) [compound 455] | “++” (≥20% = ++)
456 (LLIGHLERV; listed as Homo sapiens) [compound 456] | “+++” (≥50 = +++)
458 (SLIDKLYNI; listed as Homo sapiens) [compound 458] | “++” (≥20% = ++)
462 (KLAKQPETV; listed as Homo sapiens) [compound 462] | “+++” (≥50 = +++)
464 (ALNDCIYSV; listed as Homo sapiens) [compound 464] | “+++” (≥50 = +++)
465 (QLCDLNAEL; listed as Homo sapiens) [compound 465] | “+++” (≥50 = +++)
466 (VLIANLEKL; listed as Homo sapiens) [compound 466] | “++++” (≥75% = ++++)
468 (YLRSVGDGETV; listed as Homo sapiens) [compound 468] | “+++” (≥50 = +++)
472 (KLLEVSDDPQV; listed as Homo sapiens) [compound 472] | “+++” (≥50 = +++)
473 (AMATESILHFA; listed as Homo sapiens) [compound 473] | “+++” (≥50 = +++)
474 (YLDPALELGPRNV; listed as Homo sapiens) [compound 474] | “+++” (≥50 = +++)
475 (LLLNEEALAQI; listed as Homo sapiens) [compound 475] | “+++” (≥50 = +++)
476 (ALMERTGYSMV; listed as Homo sapiens) [compound 476] | “+++” (≥50 = +++)
479 (SLFGNSGILENV; listed as Homo sapiens) [compound 479] | “+++” (≥50 = +++)
484 (SLIEKVTQL; listed as Homo sapiens) [compound 484] | “+++” (≥50 = +++)
485 (NVPDSFNEV; listed as Homo sapiens) [compound 485] | “+++” (≥50 = +++)
486 (AVMESIQGV; listed as Homo sapiens) [compound 486] | “+++” (≥50 = +++)
487 (LLINSVFHV; listed as Homo sapiens) [compound 487] | “+++” (≥50 = +++)
491 (GLNDRSDAV; listed as Homo sapiens) [compound 491] | “++” (≥20% = ++)
492 (SLFDGFADGLGV; listed as Homo sapiens) [compound 492] | “+++” (≥50 = +++)

Source: patent publication US10280205B2, “Method for treating cancer with an activated T lymphocyte that selectively recognizes a cancer cell consisting of specific peptide” (immatics biotechnologies GmbH, priority 2015, dated 2019)
